In test [1] the target is T1, recombinant human heparanase (Homo sapiens, UniProt Q9Y251).
T1 construct: Heparanase 8 and 50 kDa sub-units were cloned into pacGP67 as Sma 1-EcoR1 fragments; made in house; host or cells: Hi5 insect cells, baculovirus (pFastBac Dual)
T1 sequence (Q9Y251 158-543 limits assumed): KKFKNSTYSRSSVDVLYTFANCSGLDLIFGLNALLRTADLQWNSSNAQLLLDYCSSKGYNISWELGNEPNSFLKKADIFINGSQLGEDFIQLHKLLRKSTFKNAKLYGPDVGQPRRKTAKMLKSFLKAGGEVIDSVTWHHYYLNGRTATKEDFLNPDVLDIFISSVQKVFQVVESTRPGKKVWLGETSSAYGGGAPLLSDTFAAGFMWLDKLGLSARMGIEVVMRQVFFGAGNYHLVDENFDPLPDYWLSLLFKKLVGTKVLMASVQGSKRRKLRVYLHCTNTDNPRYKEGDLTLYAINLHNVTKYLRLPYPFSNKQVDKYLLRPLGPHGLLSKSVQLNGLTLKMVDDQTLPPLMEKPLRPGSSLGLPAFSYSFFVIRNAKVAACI
T1 sequence (Q9Y251 36-109 limits assumed): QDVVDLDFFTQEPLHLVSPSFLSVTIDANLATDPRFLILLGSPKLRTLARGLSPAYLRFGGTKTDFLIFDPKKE
As to the kind of experiment: ELISA binding to directly coated recombinant human heparanase. How it is done: (§1) Titres of antibodies from Campaigns 1 and 2 were determined in an ELISA. Costar 3368 medium binding plates were coated directly with recombinant human heparanase or plates were coated with Rabbit anti-heparanase antibody (Raybiotech, Cat. IP-14-155) to capture recombinant heparanase. Directly coated heparanase was detected in three separate plates by mouse (InSight Cat. INS-26-1-0000), goat (Santa Cruz, Cat. sc26136) or rabbit (Raybiotech, Cat. IP-14-155) anti-heparanase antibodies, and quantified using appropriate secondary antibodies. Antibody captured heparanase was detected using mouse anti-heparanase (Insight Cat. INS-26-1-0000). At the end of the immunisation program, fusions were performed using mouse myeloma cells and lymphocytes isolated from the spleens and lymph nodes of the immunised mice by means of electroporation, as described in Example 2.
(§2) Initial screening to detect antibodies binding to human heparanase in both direct coating and antibody capture ELISAs as described above identified 800 hybridomas for further testing; 535 IgG2 from Campaign 1 and 2 and 265 IgG4 from Campaign 2. Enzyme inhibition assays and cross species binding to cynomolgus and murine heparanase, in an antibody capture ELISA, identifed 12 antibodies that were taken forward for sub-cloning to provide purified antibodies for further analysis. Subsequently, confirmation of activity against human heparanase (FIGS. 3 and 4) and inhibition of recombinant cynomolgus and murine heparanase activity in the HS-cryptate degradation assay (FIG. 5a-c), together with sequence analysis, identified 8 antibodies that are described in the table below.
(In general: An ELISA detects its analyte on a solid surface through an enzyme-linked reagent.)

In the next test the target is T2, Recombinant Hpa1 (Homo sapiens, UniProt Q9Y251).
T2 construct: Heparanase 8 and 50 kDa sub-units were cloned into pacGP67 as Sma 1-EcoR1 fragments; made in house; host or cells: Hi5 insect cells, baculovirus (pFastBac Dual)
T2 sequence (Q9Y251 158-543 limits assumed): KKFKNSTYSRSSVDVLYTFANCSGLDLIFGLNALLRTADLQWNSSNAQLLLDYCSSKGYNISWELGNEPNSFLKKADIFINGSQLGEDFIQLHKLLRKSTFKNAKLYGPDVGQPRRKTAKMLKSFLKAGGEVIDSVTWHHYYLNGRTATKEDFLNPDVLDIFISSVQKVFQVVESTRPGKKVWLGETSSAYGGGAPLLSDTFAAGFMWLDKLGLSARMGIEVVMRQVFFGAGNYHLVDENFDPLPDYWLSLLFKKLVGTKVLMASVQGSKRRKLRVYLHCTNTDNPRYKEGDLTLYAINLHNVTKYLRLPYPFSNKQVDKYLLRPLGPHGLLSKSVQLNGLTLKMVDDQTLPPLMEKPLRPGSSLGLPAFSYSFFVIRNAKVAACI
T2 sequence (Q9Y251 36-109 limits assumed): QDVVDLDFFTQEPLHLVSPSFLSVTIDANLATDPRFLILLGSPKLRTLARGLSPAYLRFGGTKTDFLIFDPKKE
The experiment in a line: Medium resolution Biacore affinity. The class given is binding. Particulars: purified antibody captured on CM4 chip; Hpa1 1 nM and 10 nM; 25° C. How it is done: For medium resolution Biacore™ tests, cloned and purified antibodies were used. Each of three purified antibodies (10E9.1, 15A1.2, and 15A11.1) were captured onto a high-density goat anti-human antibody surface over a CM4 Biacore™ chip. Recombinant Hpa1 was diluted to the desired concentration (1 nM and 10 nM) in 10 mM HEPES, 150 mM NaCl, 0.005% tween-20, 0.1 mg per ml BSA pH7.4 (25° C.) immediately prior to injection. Data were fit globally to a 1:1 interaction model with a term for mass transport included. The resulting KD values are summarised below in Table 4.

Another test has as its system HCT116 xenograft. The experiment in a line: Subcutaneous xenograft tumour growth, HCT116. The class given is in vivo, SCID mice. Particulars: once weekly i.p.; 10E9.1 at 15 mg per kg. How it is done: (§3) MCF7-Hpa1#19 and HCT116 tumour cells were harvested from sub-confluent cultures. A total of 5×10^6 (MCF7-Hpa1#19) or 10^7 (HCT116) tumour cells were inoculated subcutaneously into the flank of male SCID mice. HCT116 tumour cells were implanted in PBS; […] cells were implanted in PBS containing 50% matrigel.
(§4) When tumours had attained ˜200 mm^3, tumour bearing mice were randomised into treatment groups and dosed with the following; PBS; an isotype matched control IgG2 antibody, 15 mg per kg; anti-heparanase antibody 10E9.1, 7.5 or 15 mg per kg. All treatments were administered once weekly i.p. Tumour growth was measured twice per week using calipers and tumour volumes calculated according to an ellipsoid volume is formula (3.142/6×length×width×width) from measures of the largest tumour diameter and two opposing widths (FIG. 11).

A further test deals with cynomolgus heparanase. The experiment in a line: Cross species capture ELISA, cynomolgus heparanase. In kind it is binding. The conditions noted are these: min 0.06, max 1.5 OD units. How it is done:
(§5) Initially, cross species binding to human, murine and cynomolgus heparanase was determined in an ELISA assay in which heparanase was captured onto plates using a rabbit anti-heparanase antibody (Raybiotech, Cat. IP-14-155). Exhaustive supernatants were added to the plates at a final dilution of 1:5 and bound antibody detected with a rabbit anti-human IgG Fc.

In the next test the test system is MDA MB231-Hpa1#4 cells. The experiment in a line: Heparanase expression in cells cultured with antibody (Western blot). The class given is cell-based, human. Particulars: 25 μg per ml antibody, 72 hrs, compared to untreated or IgG2 control. How it is done: MDA MB231-Hpa1#4 cells were cultured in the presence of 25 μg per ml anti-human heparanase antibody or control IgG2 antibody (Sigma Cat. No. 1504-1MG) for 72 hrs. Following the removal of culture medium, protein extracts were prepared from the cells in 100 μl RIPA buffer and separated on […] gels and transferred to nitrocellulose as described above. Western blots were probed with an anti-heparanase antibody that detected only pro-heparanase (SantaCruz Cat. No. SC25825).

In another test the target is T3, murine heparanase (Mus musculus, UniProt Q6YGZ1).
T3 construct: made in house; host or cells: Hek293 cells (conditioned medium), inferred for the ELISA
T3 sequence (Q6YGZ1 28-535): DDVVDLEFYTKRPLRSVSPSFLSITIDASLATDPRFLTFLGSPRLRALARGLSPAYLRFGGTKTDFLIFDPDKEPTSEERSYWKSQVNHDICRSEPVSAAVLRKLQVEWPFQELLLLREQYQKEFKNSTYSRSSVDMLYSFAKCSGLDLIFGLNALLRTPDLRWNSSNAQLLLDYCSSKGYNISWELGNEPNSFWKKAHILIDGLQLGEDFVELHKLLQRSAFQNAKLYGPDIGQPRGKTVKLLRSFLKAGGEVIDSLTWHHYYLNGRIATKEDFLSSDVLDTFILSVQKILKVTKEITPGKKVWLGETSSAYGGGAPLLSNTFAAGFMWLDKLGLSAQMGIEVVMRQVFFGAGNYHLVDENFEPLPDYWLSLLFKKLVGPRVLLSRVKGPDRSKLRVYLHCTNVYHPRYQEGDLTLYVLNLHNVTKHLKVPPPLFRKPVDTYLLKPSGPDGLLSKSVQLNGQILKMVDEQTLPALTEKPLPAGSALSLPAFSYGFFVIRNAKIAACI
As to the kind of experiment: Cross species capture ELISA, murine heparanase. In kind it is binding. Particulars: min 0.06, max 0.9 OD units. As for the experimental part: as §5

A further test concerns the target T4, human heparanase (Homo sapiens, UniProt Q9Y251).
T4 sequence (Q9Y251 36-543): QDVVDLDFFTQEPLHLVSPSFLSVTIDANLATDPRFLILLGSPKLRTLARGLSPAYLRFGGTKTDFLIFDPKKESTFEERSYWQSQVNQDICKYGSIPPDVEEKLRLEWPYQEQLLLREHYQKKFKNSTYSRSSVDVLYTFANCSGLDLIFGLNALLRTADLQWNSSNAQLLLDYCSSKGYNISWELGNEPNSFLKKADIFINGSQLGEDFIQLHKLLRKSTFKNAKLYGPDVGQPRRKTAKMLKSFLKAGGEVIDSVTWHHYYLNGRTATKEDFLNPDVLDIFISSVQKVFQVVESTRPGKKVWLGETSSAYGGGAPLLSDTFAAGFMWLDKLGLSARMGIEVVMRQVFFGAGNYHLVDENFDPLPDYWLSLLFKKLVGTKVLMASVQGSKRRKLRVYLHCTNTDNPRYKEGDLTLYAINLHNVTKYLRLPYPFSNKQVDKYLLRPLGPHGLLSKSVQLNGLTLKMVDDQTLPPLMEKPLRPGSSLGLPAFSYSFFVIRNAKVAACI
As to the kind of experiment: Cross species capture ELISA, human heparanase. The class given is binding. How it is done: as §5

Test [2] deals with T5, recombinant heparanase captured with rabbit anti-heparanase antibody (Homo sapiens, UniProt Q9Y251).
T5 construct: Heparanase 8 and 50 kDa sub-units were cloned into pacGP67 as Sma 1-EcoR1 fragments; made in house; host or cells: Hi5 insect cells, baculovirus (pFastBac Dual)
T5 sequence (Q9Y251 158-543 limits assumed): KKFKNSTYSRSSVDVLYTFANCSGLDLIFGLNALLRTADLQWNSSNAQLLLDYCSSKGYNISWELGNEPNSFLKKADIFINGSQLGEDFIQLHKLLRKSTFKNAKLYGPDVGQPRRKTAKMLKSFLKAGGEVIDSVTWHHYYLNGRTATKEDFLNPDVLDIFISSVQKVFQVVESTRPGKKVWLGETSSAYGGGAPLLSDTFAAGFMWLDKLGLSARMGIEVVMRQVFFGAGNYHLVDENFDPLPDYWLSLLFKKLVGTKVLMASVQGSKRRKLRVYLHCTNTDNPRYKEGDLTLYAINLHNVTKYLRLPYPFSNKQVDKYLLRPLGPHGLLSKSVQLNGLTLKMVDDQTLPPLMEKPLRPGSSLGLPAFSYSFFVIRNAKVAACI
T5 sequence (Q9Y251 36-109 limits assumed): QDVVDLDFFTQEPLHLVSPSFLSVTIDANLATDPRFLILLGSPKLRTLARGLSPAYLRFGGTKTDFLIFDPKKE
As to the kind of experiment: ELISA binding to antibody-captured heparanase. Particulars: antibody capture. How it is done: as §1, §2

A further test concerns MCF7-Hpa1#19 xenograft. The experiment in a line: Subcutaneous xenograft tumour growth, MCF7-Hpa1#19. The class given is in vivo, SCID mice. Particulars: once weekly i.p.; 10E9.1 at 7.5 or 15 mg per kg. As for the experimental part: as §3, §4

Data on one molecule can be found in US20100233154A1, “TARGETED BINDING AGENTS DIRECTED TO HEPARANASE AND USES THEREOF 463” (MedImmune Limited, priority 2008, published 2010).

B1: 15A11.1: fully human anti-heparanase monoclonal antibody, G2κ; VH SEQ ID NO 10, VL SEQ ID NO 12; ATCC PTA-9490 (antibody, listed as Homo Sapiens, V domains shown)
VH: QVQLVQSGAEVKKPGASVKVSCKVSGDTLTELSMHWVRQTPGKGLEWMGGFDPEDGETIYAQKFQGRVTMTGDTSTDTAYMELSSLRSEDTAVYYCATEGDYGDSEEYYYYYGMDVWGQGTTVTVSS
VL: DIQMTQSPSSLSASVGDRVTITCRASQGISNYLAWYQQKPGKVPKLLIYAASTLQSGVPSRFSGSGSGTDFTLTISSLQPEDVATYYCQKYNRAPFTFGPGTKVDIK
notes: fully human anti-heparanase monoclonal antibody, G2κ; ATCC PTA-9490
Turning to B1, the “Binding to direct coated heparanase” value in test [1] was 0.07 OD units. In addition, in the test with Recombinant Hpa1, the ka was determined as 3.6e+06 M⁻¹ s⁻¹ and the kd amounted to 0.000309 s⁻¹. The Tumour growth inhibition entry with HCT116 xenograft was “not inhibited”. Moreover, the “Binding to heparanase Cyno” value in the test on cynomolgus heparanase is 0.14 OD units. The “Inhibition of heparanase expression” value with MDA MB231-Hpa1#4 cells was “significant inhibition of heparanase expression”. Moreover, the “Binding to heparanase Mouse” value with murine heparanase is reported as 0.17 OD units. Further, in the test with human heparanase, the “Binding to heparanase Human” value worked out at 0.21 OD units. Moreover, the “Binding to captured heparanase” value in test [2] is 0.5 OD units. The Tumour growth inhibition entry with MCF7-Hpa1#19 xenograft is “not inhibited”.
